Fluorescence (RFU) data for ten molecules are collected here from patent US20180224449A1.

Ends that are not written are not given here.

In the first test the target is Opr86 outer membrane protein on P. stutzeri cells (P. stutzeri). Kind of test: fluorometry at 525 nm of 1x10^9 P. stutzeri cells labeled with peptide-QD525 conjugate.
PRIRKSH (also: conjugated to quantum dot) [OPP1 peptide-quantum dot conjugate]: the Fluorescence (RFU) came out at 12300 RFU.

Regarding LRPLMNR (conjugated to a quantum dot (QD525)) [OPP4 peptide-quantum dot conjugate], the Fluorescence (RFU) turned out to be 1380 RFU.

MHNLNLL (conjugated to a quantum dot (QD525)) [OPP2 peptide-quantum dot conjugate] gave a Fluorescence (RFU) of 1850 RFU.

As to LPSTIHR (conjugated to a quantum dot (QD525)) [OPP3 peptide-quantum dot conjugate], the Fluorescence (RFU) was 2250 RFU.

As for IITMKRR (conjugated to a quantum dot (QD525)) [OPP5 peptide-quantum dot conjugate], the Fluorescence (RFU) is 4410 RFU.

For the molecule RKKSRIR (conjugated to a quantum dot (QD525)) [OPP6 peptide-quantum dot conjugate], the Fluorescence (RFU) stood at 4130 RFU.

A further test addresses OprF outer membrane protein on P. stutzeri cells (P. stutzeri). The description is as above.
Turning to QITLRST (conjugated to a quantum dot (QD525)) [OBP7 peptide-quantum dot conjugate], the Fluorescence (RFU) turned out to be 2620 RFU.

Turning to NMTNPPP (conjugated to a quantum dot (QD525)) [OBP6 peptide-quantum dot conjugate], the Fluorescence (RFU) was 2080 RFU.

QMLLRLP (conjugated to a quantum dot (QD525)) [OBP9 peptide-quantum dot conjugate]: the Fluorescence (RFU) was found to be 3340 RFU.

With RRSNSQL (conjugated to a quantum dot (QD525)) [OBP4 peptide-quantum dot conjugate], the Fluorescence (RFU) stood at 4520 RFU.

In the next test the target is Opr86 outer membrane protein on A. venetianus cells (A. venetianus). The test can be described thus: fluorometry of cells recovered from spiked 1 L Jet A fuel and labeled with 1.5 uM peptide-QD545, at the LOD of 5 x 10^5 CFU.
Turning to PRIRKSH (also: conjugated to quantum dot) [OPP1 peptide-quantum dot conjugate], the Fluorescence (RFU) is 773 RFU.

The target of a further test is Opr86 outer membrane protein on P. stutzeri cells (P. stutzeri). The test is described as above.
Regarding PRIRKSH (also: conjugated to quantum dot) [OPP1 peptide-quantum dot conjugate], the Fluorescence (RFU) was 820 RFU.
